Biological target: Spike (S) protein of authentic SARS-CoV-2, strain USA-WA1/2020 (SARS-CoV-2, UniProt P0DTC2 14-1273)
Experiment: cell-based or functional assay

Row | Binder | IC50, neutralization of authentic SARS-CoV-2 [ng/mL]
1 | C144 (antibody, V domains shown) VH: EVQLVESGGGLIQPGGSLRLSCAASGFTVSNNYMSWVRQAPGKGLEWVSVIYSGGSTYYADSVKGRFTISRDKSKNTLYLQMNRLRAEDTAVYYCAREGEVEGYNDFWSGYSRDRYYFDYWGQGTLVTVSS VL: QSALTQPASVSGSPGQSITISCTGTSSDVGGYNYVSWYQQHPGKAPKLMIYDVSNRPSGVSNRFSGSKSGNTASLTISGLQAEDEADYYCSSYTSSSTRVFGTGTKVTVL | 2.55
2 | C121 (antibody, V domains shown) VH: not shown VL: QSALTQPASVSGSPGQSITISCTGTSSDVGSYNLVSWYQQHPGKAPKLMIYEGSKRPSGVSNRFSGSKSGNTASLTISGLQAEDEADYYCCSYAGSSTLVFGGGTKLTVL | 1.64

— patent US20210332110A1 (ROCKEFELLER UNIVERSITY, published 2021)
